Assay results from PMC4369838.

Target: Synthetic Aβ(1–42), prepared as amyloid-beta-derived diffusible ligands (ADDLs) (human)
Assay: SEC; analytical SEC of the ADDL preparation (Superdex 75 5/150, PBS, pH 7.4); oligomer peak area divided by oligomer plus monomer peak area; three separate experiments

percent of total Aβ in species larger than monomers: 47%
Substance: Synthetic Aβ(1–42), prepared as amyloid-beta-derived diffusible ligands (ADDLs) (peptide)
